The experiment deals with actin (untreated, of the in vitro assays of Fig. 1) (UniProt P68135).

Some results are limits rather than exact numbers.

Mical, sequence (Q86BA1 whole entry): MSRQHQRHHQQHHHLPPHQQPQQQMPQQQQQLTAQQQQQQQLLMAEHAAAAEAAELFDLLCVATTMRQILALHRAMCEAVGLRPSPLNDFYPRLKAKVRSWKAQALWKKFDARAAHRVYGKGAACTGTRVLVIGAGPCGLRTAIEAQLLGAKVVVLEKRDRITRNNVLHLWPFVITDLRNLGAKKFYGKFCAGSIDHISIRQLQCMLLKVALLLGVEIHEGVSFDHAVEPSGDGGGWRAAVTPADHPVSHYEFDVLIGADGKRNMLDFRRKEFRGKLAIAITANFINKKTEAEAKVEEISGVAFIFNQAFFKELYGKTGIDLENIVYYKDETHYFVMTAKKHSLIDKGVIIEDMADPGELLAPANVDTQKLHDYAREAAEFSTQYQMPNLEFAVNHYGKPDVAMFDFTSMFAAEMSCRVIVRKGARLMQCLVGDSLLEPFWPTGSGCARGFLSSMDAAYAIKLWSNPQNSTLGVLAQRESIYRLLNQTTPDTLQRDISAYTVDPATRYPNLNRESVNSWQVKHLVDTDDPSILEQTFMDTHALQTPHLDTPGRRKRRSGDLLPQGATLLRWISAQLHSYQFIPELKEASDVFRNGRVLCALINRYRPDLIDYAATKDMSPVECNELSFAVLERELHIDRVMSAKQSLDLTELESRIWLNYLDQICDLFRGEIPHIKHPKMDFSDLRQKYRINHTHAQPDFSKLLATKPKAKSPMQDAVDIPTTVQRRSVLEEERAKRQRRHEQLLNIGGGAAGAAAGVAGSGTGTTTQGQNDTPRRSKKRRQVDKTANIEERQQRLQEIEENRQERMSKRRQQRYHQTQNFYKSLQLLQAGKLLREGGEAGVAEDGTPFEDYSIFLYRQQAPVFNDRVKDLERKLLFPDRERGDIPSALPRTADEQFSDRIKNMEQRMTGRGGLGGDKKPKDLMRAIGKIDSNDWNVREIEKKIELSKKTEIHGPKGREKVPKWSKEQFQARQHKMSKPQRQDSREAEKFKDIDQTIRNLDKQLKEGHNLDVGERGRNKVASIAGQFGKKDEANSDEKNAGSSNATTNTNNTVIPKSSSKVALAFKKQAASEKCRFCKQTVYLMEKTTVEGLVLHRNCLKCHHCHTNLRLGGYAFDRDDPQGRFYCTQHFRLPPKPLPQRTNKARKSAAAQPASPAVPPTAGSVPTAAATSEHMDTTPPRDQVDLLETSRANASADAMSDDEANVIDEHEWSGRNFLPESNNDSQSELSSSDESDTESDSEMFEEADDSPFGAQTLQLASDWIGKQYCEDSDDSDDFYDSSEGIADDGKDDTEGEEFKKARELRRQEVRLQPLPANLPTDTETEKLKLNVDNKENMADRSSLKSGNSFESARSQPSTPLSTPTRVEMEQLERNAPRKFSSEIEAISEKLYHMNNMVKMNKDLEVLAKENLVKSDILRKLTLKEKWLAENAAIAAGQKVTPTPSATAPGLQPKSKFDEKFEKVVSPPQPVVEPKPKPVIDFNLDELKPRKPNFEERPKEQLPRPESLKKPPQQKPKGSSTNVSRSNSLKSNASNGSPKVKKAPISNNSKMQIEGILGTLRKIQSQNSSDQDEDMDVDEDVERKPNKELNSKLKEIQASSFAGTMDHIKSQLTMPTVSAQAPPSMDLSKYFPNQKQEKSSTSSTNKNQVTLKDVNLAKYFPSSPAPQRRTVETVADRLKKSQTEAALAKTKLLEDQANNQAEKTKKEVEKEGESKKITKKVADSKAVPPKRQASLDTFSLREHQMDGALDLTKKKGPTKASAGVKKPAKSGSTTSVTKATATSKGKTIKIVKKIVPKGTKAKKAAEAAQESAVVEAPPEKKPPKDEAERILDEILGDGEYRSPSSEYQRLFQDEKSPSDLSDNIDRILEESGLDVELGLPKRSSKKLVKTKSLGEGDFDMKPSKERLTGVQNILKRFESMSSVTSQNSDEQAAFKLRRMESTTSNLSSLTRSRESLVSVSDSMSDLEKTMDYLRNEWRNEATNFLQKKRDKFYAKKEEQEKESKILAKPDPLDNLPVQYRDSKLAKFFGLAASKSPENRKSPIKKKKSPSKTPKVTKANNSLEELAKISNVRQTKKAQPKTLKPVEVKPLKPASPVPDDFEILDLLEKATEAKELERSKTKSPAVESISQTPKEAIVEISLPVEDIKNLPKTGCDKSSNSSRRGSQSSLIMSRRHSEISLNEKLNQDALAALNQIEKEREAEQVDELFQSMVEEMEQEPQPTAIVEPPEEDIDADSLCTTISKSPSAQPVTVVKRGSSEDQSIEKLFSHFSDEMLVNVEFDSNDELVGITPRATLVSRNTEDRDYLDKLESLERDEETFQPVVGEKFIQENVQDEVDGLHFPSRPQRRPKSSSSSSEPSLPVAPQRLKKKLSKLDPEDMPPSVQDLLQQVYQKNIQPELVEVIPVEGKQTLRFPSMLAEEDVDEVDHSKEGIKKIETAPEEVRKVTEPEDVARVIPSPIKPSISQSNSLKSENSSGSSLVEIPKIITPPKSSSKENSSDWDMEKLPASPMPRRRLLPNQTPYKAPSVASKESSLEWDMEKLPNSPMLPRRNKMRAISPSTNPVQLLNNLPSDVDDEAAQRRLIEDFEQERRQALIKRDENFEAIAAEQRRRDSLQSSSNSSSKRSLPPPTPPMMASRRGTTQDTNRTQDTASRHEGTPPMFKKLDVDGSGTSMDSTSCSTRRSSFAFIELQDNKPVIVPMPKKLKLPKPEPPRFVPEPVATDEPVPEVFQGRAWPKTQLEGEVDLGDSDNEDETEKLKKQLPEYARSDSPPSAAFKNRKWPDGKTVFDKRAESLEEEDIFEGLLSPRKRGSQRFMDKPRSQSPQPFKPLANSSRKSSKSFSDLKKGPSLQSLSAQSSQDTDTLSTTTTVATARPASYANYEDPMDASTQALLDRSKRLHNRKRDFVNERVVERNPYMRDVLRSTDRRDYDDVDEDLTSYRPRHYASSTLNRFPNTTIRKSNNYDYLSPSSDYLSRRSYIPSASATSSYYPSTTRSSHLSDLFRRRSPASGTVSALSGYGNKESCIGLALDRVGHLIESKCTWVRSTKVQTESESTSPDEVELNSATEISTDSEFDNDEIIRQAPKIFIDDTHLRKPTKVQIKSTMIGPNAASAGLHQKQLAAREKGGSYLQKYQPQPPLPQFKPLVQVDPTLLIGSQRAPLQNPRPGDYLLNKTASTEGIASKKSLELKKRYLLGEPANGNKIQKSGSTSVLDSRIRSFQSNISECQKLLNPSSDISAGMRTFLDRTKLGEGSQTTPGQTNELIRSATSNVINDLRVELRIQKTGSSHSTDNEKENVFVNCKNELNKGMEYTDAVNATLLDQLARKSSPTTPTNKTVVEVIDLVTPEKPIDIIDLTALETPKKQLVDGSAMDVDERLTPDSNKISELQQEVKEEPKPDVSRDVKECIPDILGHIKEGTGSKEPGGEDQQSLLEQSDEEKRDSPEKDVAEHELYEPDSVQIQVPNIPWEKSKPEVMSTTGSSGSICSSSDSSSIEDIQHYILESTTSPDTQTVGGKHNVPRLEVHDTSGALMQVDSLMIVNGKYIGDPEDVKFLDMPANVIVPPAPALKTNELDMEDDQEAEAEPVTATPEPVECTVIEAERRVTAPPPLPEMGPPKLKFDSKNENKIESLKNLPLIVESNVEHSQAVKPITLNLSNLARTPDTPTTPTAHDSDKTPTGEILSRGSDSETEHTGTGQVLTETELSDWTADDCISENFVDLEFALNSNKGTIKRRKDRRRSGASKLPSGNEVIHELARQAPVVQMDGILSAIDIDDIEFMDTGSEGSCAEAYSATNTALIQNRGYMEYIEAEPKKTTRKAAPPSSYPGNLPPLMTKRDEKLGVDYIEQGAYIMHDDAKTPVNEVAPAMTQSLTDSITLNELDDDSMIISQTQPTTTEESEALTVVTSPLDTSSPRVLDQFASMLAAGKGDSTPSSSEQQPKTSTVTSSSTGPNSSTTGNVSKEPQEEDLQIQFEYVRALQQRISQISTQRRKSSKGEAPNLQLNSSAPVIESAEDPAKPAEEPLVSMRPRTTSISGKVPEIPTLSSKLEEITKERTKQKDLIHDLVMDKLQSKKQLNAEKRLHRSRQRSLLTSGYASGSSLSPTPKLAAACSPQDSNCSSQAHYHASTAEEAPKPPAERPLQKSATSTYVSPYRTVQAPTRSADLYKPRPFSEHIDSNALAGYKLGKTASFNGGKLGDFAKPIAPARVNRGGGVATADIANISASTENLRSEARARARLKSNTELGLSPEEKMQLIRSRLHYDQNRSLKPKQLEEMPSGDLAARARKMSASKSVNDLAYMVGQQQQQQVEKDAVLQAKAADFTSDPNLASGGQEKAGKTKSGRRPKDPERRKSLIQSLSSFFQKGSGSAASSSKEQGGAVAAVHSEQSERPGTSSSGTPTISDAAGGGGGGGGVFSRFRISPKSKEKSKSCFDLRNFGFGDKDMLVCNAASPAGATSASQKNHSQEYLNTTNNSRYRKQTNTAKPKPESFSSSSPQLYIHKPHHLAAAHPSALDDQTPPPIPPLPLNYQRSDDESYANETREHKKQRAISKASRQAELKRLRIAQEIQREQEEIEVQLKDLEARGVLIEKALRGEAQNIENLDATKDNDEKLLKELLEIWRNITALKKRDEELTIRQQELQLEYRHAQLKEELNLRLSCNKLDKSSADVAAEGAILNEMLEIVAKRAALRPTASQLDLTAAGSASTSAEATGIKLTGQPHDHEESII

Take “Mical (from UniProt Q86BA1 1-4723) (enzyme)”: the Mical enzymatic activity (conversion of NADPH to NADP+) with F-actin was > 100 fold.

These data come from article PMC3612955.
